Laboratory results as given in the supplement of paper PMC9170038.

Test system: MS2 coat protein
Assay: apparent KD of MS2 coat protein; designed switch direction (-1 OFF switch, 1 ON switch): 1; higher = weaker reporter binding
Method in brief: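 The buffer was Tris-HCl pH 7.5 with KCl, MgCl2, BSA, DTT, tRNA and Tween-20. In it, SNAP-549-labelled MS2 coat protein was titrated in doubling steps from 0.7 or 1.5 nM to 3 µM over chip-bound RNA switches transcribed by stalled E. coli RNA polymerase on Illumina chips. Apparent KD is the per-design median over clusters of curve fits to normalised fluorescence.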

[1] = input ligand: microRNA oligo, concentration not stated
[2] = Eterna round: R95, input ligand: FMN 200 uM
[3] = Eterna round: R95, input ligand: microRNA oligo, concentration not stated
[4] = Eterna round: R95, input ligand: none

Row | Sequence | apparent KD of MS2 coat protein (input ligand: FMN 200 uM) [µM] | apparent KD of MS2 coat protein [1] [µM] | apparent KD of MS2 coat protein (input ligand: none) [µM] | apparent KD of MS2 coat protein [2] [µM] | apparent KD of MS2 coat protein [3] [µM] | apparent KD of MS2 coat protein [4] [µM]
1 | UUAAUUAUGUAAGGAUAUACAUGAGGAUUUCUCGUAGAAGGUACAUUACAUGAGGAUCACCCAUGUGGGUGUCAGAAGACGCCA [Mat - Same State NG 1 - JL mod - D12] (Eterna round: R96, puzzle: Same State NG 1) | 0.269 | 0.21 | 0.404 | – | – | –
2 | UUAAUUUACUGAGGAUAUCGUGUCGACUGAGUUGACAUGAGGAUCACCCAUGUGUGAAGUGGUAUCGAGAAGGCAGUUUUCUUA [JR_SSNG2_Sub026] (Eterna round: R96, puzzle: Same State NG 2) | 0.019 | 0.0769 | 0.122 | – | – | –
3 | UUACAUGAGGAUCACCCAUGUCGCUGGUAAACUUCGAACCCGCAGGAUAUGUAUGCCACUUUACGACAGAAGGGCGGGUGCCUG [Eternabot solution 47] (Eterna round: R96, puzzle: Same State NG 3) | 0.0379 | 0.0503 | 0.0643 | – | – | –
4 | UUACCGCGGGUAGGAUAUGGUCACACUUCUAAAACAUGAGGAUCACCCAUGUCCGACACAUAAAGCCAGAAGGACCCGCGGCUC [Esbea] (Eterna round: R96, puzzle: Same State NG 2) | 0.0208 | 0.0485 | 0.0714 | – | – | –
5 | UUACGUACGUAUGAGGAUAUCCAUAAUAAGACAUGAGGAUCACCCAUGUAAACAAAACAAUAAUGGGAGAAGGCAUACGUACGAA [Mat - Same state - Malcolm Mod - D135] (Eterna round: R96, puzzle: Same State 2) | – | 0.053 | – | – | – | –
6 | UUACUCAUGUAAGGAUAUGCAGCCGAAACGGCUGCAGAAGGUACUAAAAUACAUGAGGAUCACCCAUGUCUAAUUAAUUAAGAC [Mat - Same State NG 1 - JL mod - D84] (Eterna round: R96, puzzle: Same State NG 1) | 0.139 | 0.0363 | 0.0665 | – | – | –
7 | UUACUCAUGUAAGGAUAUGCAGCCGAAACGGCUGCAGAAGGUACUAUAAUACAUGAGGAUCACCCAUGUCUCUAUUAUAAAGUU [Mat - Same State NG 1 - JL mod - D95] (Eterna round: R96, puzzle: Same State NG 1) | 0.0948 | 0.0434 | 0.0495 | – | – | –
8 | UUAUAACAUGAGGAUCACCCAUGUCAACAAAGUCGAGGAUAUGGGCAAGAAUUGAGAGAACCAGAAGGCGAAUAUU [Mat - Same State 1 - Mod of UCT - D31] (puzzle: Same State 1) | – | – | – | 0.0784 | 0.131 | 0.148
9 | UUAUAACAUGAGGAUCACCCAUGUCAACAAAGUCGAGGAUAUGGGCAGAGAGGAGAAGAACCAGAAGGCGAAUAUU [Mat - Same State 1 - Mod of UCT - D38] (puzzle: Same State 1) | – | – | – | 0.0912 | 0.0984 | 0.0949
10 | UUAUAACAUGAGGAUCACCCAUGUCAUCUAAGUCGAGGAUAUGGGAAUUAAUUAAUUAAACCAGAAGGCGAAAAUU [Mat - Same State 1 - D91] (puzzle: Same State 1) | – | – | – | 0.16 | 0.149 | 0.783
11 | UUAUCCUUUUUUUACAUGAGGAUCACCCAUGUUUUUCUUACGUAGGAUAUCGUUGUUUUUUUUUACGAGAAGGACGUAGUAAGA [JR_SSND3_Sub061] (Eterna round: R96, puzzle: Same State NG 3) | 0.0413 | 0.0319 | 0.0371 | – | – | –
12 | UUAUUAUAUAUAGGAUAUUGAUGUAAUUUAUUUCAAGAAGGAUAUACAUGAGGAUCACCCAUGUUGGAUAGGGUUAGUUUGUUU [JR_SSNG1_Sub079] (Eterna round: R96, puzzle: Same State NG 1) | – | 0.074 | – | – | – | –
13 | UUAUUAUUUACAUGAGGAUCACCCAUGUUUUUAUGUCAGAGACAGGAUAUAGUAGUCUCGUUUUACUAGAAGGGUCUUUUUAUU [JR_SSNG3_Sub017] (Eterna round: R96, puzzle: Same State NG 3) | 0.0152 | 0.0189 | 0.0221 | – | – | –
14 | UUAUUAUUUAUAGGAUAUUGAUGUUUGCUAGUACAAGAAGGAUAAACAUGAGGAUCACCCAUGUAGUUUAAGGUUAGUUUGUUU [JR_SSNG1_Sub078] (Eterna round: R96, puzzle: Same State NG 1) | – | 0.0252 | – | – | – | –
15 | UUCAACUGAGGAGGAUAUGCAGAGGAUCACCCUGUAGAAGGCCUCGAAAGGAGGAUAUGCAGAGGAUCACCCUGUAGAAGGCCU [pwkr ssNG DX.19] (Eterna round: R96, puzzle: Same State NG 1) | 0.417 | 0.148 | 0.132 | – | – | –
16 | UUCACCUUAUUUUACAUGAGGAUCACCCAUGUUUUCCCUACGUAGGAUAUCGAUGCUUGAUUGUUCGAGAAGGACGAUGUAAGU [JR_SSND3_Sub055] (Eterna round: R96, puzzle: Same State NG 3) | 0.0334 | 0.0217 | 0.0333 | – | – | –
17 | UUCACCUUAUUUUACAUGAGGAUCACCCAUGUUUUUUUUACGUAGGAUAUCGAUGCUUGAUUGUUCGAGAAGGACGAUGUAAGU [JR_SSND3_Sub054] (Eterna round: R96, puzzle: Same State NG 3) | 0.0273 | 0.0243 | 0.0311 | – | – | –
18 | UUCCUUCUCGUAGGAUAUGUAGGAUAUUCCUACAUGAGGAUCACCCAUGUUCGCAUGGAAGAAGGACAGAAGGACGAUCACCCU [pwkr ssNG2 2FMN + 1F5.11] (Eterna round: R96, puzzle: Same State NG 2) | 0.0913 | 0.0743 | 0.0985 | – | – | –
19 | UUCUCCUUUUUUUACAUGAGGAUCACCCAUGUUUUUCUUACGUAGGAUAUCGUUGAGUGUUUGUACGAGAAGGACGUAGUAAGU [JR_SSND3_Sub059] (Eterna round: R96, puzzle: Same State NG 3) | 0.0379 | 0.0505 | 0.0679 | – | – | –
20 | UUCUCUUUUUAGAGACAAGCUUUUUGAUCACAUGAGGAUCACCCAUGUCUCGUCUUAUGAUUUACUUCGUUAUUUCU [BA Sensor hsa-mir-208a - 2 - 6] (puzzle: Sensor for hsa-mir-208a) | – | – | – | 0.16 | 0.0156 | 0.125
21 | UUGAAGAAUAUAGGAUAUUGAAUACAUAUGUUUAACAUGAGGAUCACCCAUGUGGGUUGCGGUAUCGAGAAGGAUAAAUAAUAG [Mat - Same State NG 2 - JL mod - D13] (Eterna round: R96, puzzle: Same State NG 2) | 0.196 | 0.122 | 0.19 | – | – | –
22 | UUGAAGAAUAUAGGAUAUUGAAUACAUAUGUUUAACAUGAGGAUCACCCAUGUGGGUUGCGGUAUCGAGAAGGAUAAUUACUAG [Mat - Same State NG 2 - JL mod - D12] (Eterna round: R96, puzzle: Same State NG 2) | 0.185 | 0.131 | 0.14 | – | – | –
23 | UUGAAGAAUUAAGGAUAUCGAGUCGUCAGAUUAAACAUGAGGAUCACCCAUGUGGGUUGCGGUAUCGAGAAGGUAAAUUACAAG [JL JR Sub099 mod 2] (Eterna round: R96, puzzle: Same State NG 2) | 0.0205 | 0.0272 | 0.0399 | – | – | –
24 | UUGAAGAAUUAAGGAUAUCGAGUCGUCAGAUUAUACAUGAGGAUCACCCAUGUGGGUUGCGGUAUCGAGAAGGUAAAUUACAAG [JL JR Sub099 mod 5] (Eterna round: R96, puzzle: Same State NG 2) | 0.0375 | 0.0584 | 0.06 | – | – | –
25 | UUGAAGAAUUAAGGAUAUUGAAUACAUAUGUUUAACAUGAGGAUCACCCAUGUGGGUUGCGGUAUCGAGAAGGUAAAUAAAUAG [Mat - Same State NG 2 - JL mod - D3] (Eterna round: R96, puzzle: Same State NG 2) | 0.169 | 0.11 | 0.159 | – | – | –
26 | UUGAAGAAUUAAGGAUAUUGAAUACAUAUGUUUAACAUGAGGAUCACCCAUGUGGGUUGCGGUAUCGAGAAGGUAAAUUAAAAG [Mat - Same State NG 2 - JL mod - D2] (Eterna round: R96, puzzle: Same State NG 2) | 0.142 | 0.179 | 0.131 | – | – | –
27 | UUGAAGAAUUAAGGAUAUUGAGUACAUAUGUUUAACAUGAGGAUCACCCAUGUGGGUUGCGGUAUCGAGAAGGUAAAUUACUAG [JL SSNG2 1.45] (Eterna round: R96, puzzle: Same State NG 2) | 0.0912 | 0.0761 | 0.155 | – | – | –
